Measurements: article doi:10.1101/2024.09.22.614354 (bioRxiv, 2024)
Substitutions are numbered along the chain they refer to.

How the values were obtained:
Assay in all cases: fluorescence polarisation
[1] = target: T1, Rb^P R741C (human, UniProt P06400 380-788, R741C)
T1 sequence: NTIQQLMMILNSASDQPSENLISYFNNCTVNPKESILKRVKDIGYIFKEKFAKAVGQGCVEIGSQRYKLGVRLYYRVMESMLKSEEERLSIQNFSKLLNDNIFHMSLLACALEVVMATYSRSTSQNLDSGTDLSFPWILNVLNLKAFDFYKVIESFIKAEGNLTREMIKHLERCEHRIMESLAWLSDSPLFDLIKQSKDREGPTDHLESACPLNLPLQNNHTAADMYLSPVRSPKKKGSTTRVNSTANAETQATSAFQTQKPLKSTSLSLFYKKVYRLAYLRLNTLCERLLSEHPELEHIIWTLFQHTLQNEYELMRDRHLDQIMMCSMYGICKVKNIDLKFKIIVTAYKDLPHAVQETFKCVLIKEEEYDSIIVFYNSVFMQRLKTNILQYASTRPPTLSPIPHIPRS

[2] = target: T2, Rb^P S474I (human, UniProt P06400 380-788, S474I)
T2 sequence: T1 sequence with S95I, C362R

[3] = target: T3, Rb^P H555Y (human, UniProt P06400 380-788, H555Y)
T3 sequence: T1 sequence with H176Y, C362R

[4] = target: T4, Rb^P S474R (human, UniProt P06400 380-788, S474R)
T4 sequence: T1 sequence with S95R, C362R

[5] = target: T5, Rb^P E492Q (human, UniProt P06400 380-788, E492Q)
T5 sequence: T1 sequence with E113Q, C362R

Measured: binding result

DLYCYEQLN (not fully specified; TMR fluorescent label (TMR-E7^LxCxE)) [TMR-E7^LxCxE (LxCxE peptide of the E7 oncoprotein from HPV, TMR-labeled)]
binds: all assays above
